{
  "source": "the DeepSol protein solubility set",
  "experiment": "soluble on expression in E. coli; label from the status in PepcDB or PDB records",
  "data": [
    {"sequence": "MAHHHHHHMLEDPNFSDFTGLHKSVTALTAANSDLARYGNELHKMILRYQLEVLSGTCNYVEVLSLAAYNGNLTAAEYVNNIEPVILGDDSVSVDIDTRTNTLSFRDSSKAKMLSYFNKIVANVDTVPASSLATTSGRYSDFTHVAASSSKREVMPLAADLDAARARSTSIYALQKACMNSKAERIEEAKKSEDKKRERAVAERREQEEAKKEETQKAYIRKLYAEYNERQRQERGKEVLRKLRIKYPGFKVDESIVYRSAAGFEDELTRLLAAFKRRGVDNDRKEILQANLYERALRALEIPKRKDYEAQNAERTRAERAAARENYLAEHRREYDRRQNEKAVLSKFLHDADEFERTWRKRANIDKPSKRDEQQRLLEEEMRRLGGE", "values": [
      {"measurement": "soluble on expression in E. coli", "result": "not soluble"}
    ]},
    {"sequence": "MTYDALHVFDWIKARSGDNPVYIWGHSLGTGVATNLVRRLCERETPPDALILESPFTNIREEAKSHPFSVIYRYFPGFDWFFLDPITSSGIKFANDENMKHISCPLLILHAEDDPVVPFHLGRKLYNIAAPSRSFRDFKVQFIPFHSDLGYRHKYIYKSPELPRILREFLGKSEPERQH", "values": [
      {"measurement": "soluble on expression in E. coli", "result": "not soluble"}
    ]},
    {"sequence": "AGYPPASPSNLSCLMHLTTNSLVCQWEPGPETHLPTSFILKSFRSRADCQYQGDTIPDCVAKKRQNNCSIPRKNLLLYQYMAIWVQAENMLGSSESPKLCLDPMDVVKLEPPMLQALDIGPDVVSHQPGCLWLSWKPWKPSEYMEQECELRYQPQLKGANWTLVFHLPSSKDQFELCGLHQAPVYTLQMRCIRSSLPGFWSPWSPGLQLRPTMKA", "values": [
      {"measurement": "soluble on expression in E. coli", "result": "soluble"}
    ]},
    {"sequence": "AHHHHHHGSIHIIEEYFRPYPARKKVAQILWEAGMSVKDGKIYVKGVEVPISGIAQVAGVNRKIVYHTIEYIESKPALKLLFENLSPRTSLISIAPLMGWEVLELTIQKGKYEKTLAKVLESLAERRVRVIEIFGSNPYEEKSKAFLVVEGIVPFEVISSLREEGSLERIVIHTPEKEKERMICPKCEIKYCPRKIFISTR", "values": [
      {"measurement": "soluble on expression in E. coli", "result": "soluble"}
    ]},
    {"sequence": "MGSDKIHHHHHHMTQLLTKIRRKKIHKGLLLYRLFQQLPVQKNLVLFESFLGRGYSDNPKALYLTLQKQRPELELVWIFAKEPNAAVKAACPNWVLRNSPKYYYLMARAQYWIFNTRQPLSLKKRRETMYLQTWHGTPLKRLGLDMDEVHMPGTNTEQYKKNFSAQAKEWNYLLSPNLYSSAIFKRAFDFRGLLLETGYPRNDLLYAPDRQQQAGQIKQSLRLPPGKKVILYAPTWRDDEFVTKGQYRFNLKLDLKQIQSRLGDDYIVLLRMHYLIAEHLDLTAFDGFAYDVSAYGDIAELYLISDLLITDYSSVFFDYAHLNRPMLFFTYDLEKYASILRGFYFDFEAVVPGPLLKESDQVIDYIEDIATQSKQYEEKYTAFQERFCSLDDGKASQRVVDALFK", "values": [
      {"measurement": "soluble on expression in E. coli", "result": "not soluble"}
    ]},
    {"sequence": "MTLQEQIMKALHVQPVIDPKAEIRKRVDFLKDYVKKTGAKGFVLGISGGQDSTLAGRLAQLAVEEIRNEGGNATFIAVRLPYKVQKDEDDAQLALQFIQADQSVAFDIASTVDAFSNQYENLLDESLTDFNKGNVKARIRMVTQYAIGGQKGLLVIGTDHAAEAVTGFFTKFGDGGADLLPLTGLTKRQGRALLQELGADERLYLKMPTADLLDEKPGQADETELGITYDQLDDYLEGKTVPADVAEKIEKRYTVSEHKRQVPASMFDDWWKLAAALEHHHHHH", "values": [
      {"measurement": "soluble on expression in E. coli", "result": "soluble"}
    ]},
    {"sequence": "MTYHLQGTTGYGLGDSGRETLDRVMARILGTEAALVRGQFVSGTHAIATALFGVLRPGDHFISVTGDPYDTLEEVIGIRGTGQGSLKDFGVSYDSVPLSEEGTIQHSLVSQGIKPNTKMLILQRSRGYAWRNSLPMEQIAAFVAYVREHFPHLIIFVDNCYGELVEKCEPGDVGADLMAGSLIKNLGGSLAPTGGYIAGRQELVEKAACRLTAPGIGGEVGATLSWQLQFFQGLFFSPLEHHHHHH", "values": [
      {"measurement": "soluble on expression in E. coli", "result": "not soluble"}
    ]},
    {"sequence": "MVWFFEYYDGCGLAIKVKKKLYEAEGVQKVEIYETESMGKMLVIDGKIQLTELDEPFYHEMLVHVPMLSHENPRKVAVIGGGDGGALREVLKHNVERAVLVDIDRNVIDLSRKFLKIDHGAFEDERVEIAIMDGKEFLRDCEIFDVIIVDSTDPVGVSDTLFDREFFELARQKCDVISLQSQSPLIQKEYFRTLLVNSAPFERRDVYLSCVPTYPLALWSFIIGGEYDFSNLEERFERIKGKTVHYNPDVHRAAFALPEWLKKEVEACILEHHHHHH", "values": [
      {"measurement": "soluble on expression in E. coli", "result": "soluble"}
    ]},
    {"sequence": "MLFLFVDGLGLGGALEDLFPFLLALAPTPLDATLGVEGLPQSGTGQTALLTGENAARLLGHHQGPFPSPRLRPLLAQGLYAWAKGKGLRVLHANGYRPDYLRRATEGKRLLLSAFAQAARLAGIPLLPLGHPLALLPGFWEDPYGAGAKAAALARAFDLVVLEYWALDLAAHRHPESLPDRFRELTLFLQGFLAEGGVLLLASDHGNAEEPWHPRHTLNPVPLVYTEEAPPPPEDLTGVFPWLRTIITSKTNKSDRNT", "values": [
      {"measurement": "soluble on expression in E. coli", "result": "soluble"}
    ]},
    {"sequence": "MKTEEELLNRMQAYCARTEHCRSEVAAKLRQAGTDELMIERLLQRLVEDRFIDEDRFARAYARDKYRFNGWGPKRIALELVKRHIPDSIIGSTLLDLEEGEDKIEDNLPRLLERKLRSIKDTDDRGRLHRLVRWAVGRGFEYEQVMREASRLLRKGYEEDS", "values": [
      {"measurement": "soluble on expression in E. coli", "result": "not soluble"}
    ]},
    {"sequence": "MGSDKIHHHHHHMKDIANTPLVSIICSTYNHGLYISQCLDGFLMQKTNFPFEILIHDDASTDNTPDIIREYEHNHPQVIRPIYQKENKYSKKEDIFAKYQCSRVRGKYIAICEGDDYWIDPLKLQKQIDFLENNPDYGMIYTTSKVYNQKKGKIEEDIIGRKFNGYIELLSGNCIPTLTSCIRSALVMEYLKEVEPKSKNWLMGDYPMWLWISYYHKIKFLPESTTVYRVLEESASHSNDIQKYERFILSTIDITAFYIHKFNTPLTEPYLRSLSCFYYDLYDKYMCLGMYKKARHYSKLINPSYVSARMRRRVRRFHLRFIQIRLAKWFDIKGKERK", "values": [
      {"measurement": "soluble on expression in E. coli", "result": "not soluble"}
    ]},
    {"sequence": "LWVYPARKPRGKAIIMCPGGGFNQIASDHEGRDFAAWFNNQGITYAVLNYRMPHGDVEVIREDIREAIRLIRRQSAEWGIHQLGVMGASIGGYIAATAATLYTGTDRPDFQVLLYPVISMTDRLTHWPSRERMLGETISEGLKETLSLELHVTADTPPTFIVLAEDDQAVSPLNSIVYYTALLKHGVSAGLHIYPEGGHSFGFRDSFIYKELWTDELQKWL", "values": [
      {"measurement": "soluble on expression in E. coli", "result": "not soluble"}
    ]},
    {"sequence": "LQVYTSDNQLIAEYGGKLSVPVEYNQIPPTFIHAFLAAEDSSFFEHSGISFKGLGRALSETVTGSNVQTGGSTITMQVAKNYYLSPERTLKRKLTEIFLARKIEQNLTKQEILSLYVNKIFLGKNAYGIAAAAKIYYNKTLDQLSIAEMAMISGLPKAPSKYNPVVNP", "values": [
      {"measurement": "soluble on expression in E. coli", "result": "not soluble"}
    ]},
    {"sequence": "MGSDKIHHHHHHMDTSIKKKRVRGRLLREMIEDAAFEVIEKEGLAGFSMRKLAAALGCEAMSIYHHFPSVAHLHEALVDRLVGALEMPDASLPWRQRMRIAIEDFRSIGRDHPAYATFFVTYRMNSPICLAWLNGILSLFRDGGFDTELSARLFRAVGYYLMGAVLDENAGYAKGPSAVNTVSDEQLARDFPNVMAAGRFFGTAEFDKTFELGLDMLLDEMERLRDGADAGQLSGKV", "values": [
      {"measurement": "soluble on expression in E. coli", "result": "not soluble"}
    ]},
    {"sequence": "MGSDKIHHHHHHMKISEFEGPLDLLLHLIRQNKMDIYDIPIAAITQQYLDYLHSMRALKLDIAGDYLVMAATLMTIKSRFLLPQPEPDEMDEDNEDDDPRDSLVAELLAYKVYQEAAGELREKEQARHQHFTREAMLVPADLSAPKLTAGITLDDLQAAFRQLVAKRRRVRPLTKTVVAETINIDERMTQITTQLQHQPQGLDFADLFTVSASDEMLVTTFMAVLELTKQDQVALQQAEPLSPIHLYLRQDEQHDEH", "values": [
      {"measurement": "soluble on expression in E. coli", "result": "not soluble"}
    ]},
    {"sequence": "MKILVALAVFFLVSTQLFAEEIGANDDLNYWSDWYDSDQIKEELPEPFEHLLQRIARRPKPQQFFGLMGKRDADSSIEKQVALLKALYGHGQISHKRHKTDSFVGLMGKRALNSVAYERSAMQNYERRRLEHHHHHH", "values": [
      {"measurement": "soluble on expression in E. coli", "result": "not soluble"}
    ]},
    {"sequence": "MAQRNLDYRLLKDRRNEYGVSQNKLAIACGLSRTYLNLIENGGVTASTKTMRKIFDQLESFNPDLPLTLLFDYVRIRFSTTDVRKIIQELLHLKFEYMLHEDYAFYSYQEQYVMGDIVVMLSHEEDKGVLLELKGRGCRQFETFLLAQKRSWYDFFEDCLKTGGVMKRLDLAINDRVGLLDISDLTKKCQKEECISLFRTFKSYRSGELLKADEKDGMGNTLYIGSLKSEVYFCLYEKDYEQYIKLGIPLDQTETKNRFEIRLKNDRAYHAIQDLLKGRSIESTTFSIINRYLRFADKVEGKRRTNWPLNEQWGRFIGRNRKEIQLTSEPKPYTIERTLNWLGRQVAPTWKMAKELDRLNQTTYIQDMVRNARLSDQHKKILEQQSMAIENLIV", "values": [
      {"measurement": "soluble on expression in E. coli", "result": "not soluble"}
    ]}
  ]
}
